According to PMC4784862, “DNA Sequence Determinants Controlling Affinity, Stability and Shape of DNA Complexes Bound by the Nucleoid Protein Fis”:

Columns and labels:
Conditions in all cases: protein: recombinant; chain copies: 2; label: 5'-32P
[1] = biological target: T1, Fis WT (UniProt P0A6R3 1-98); assay: EMSA; t1/2 44 min; EMSA: 20 mM Hepes pH 7.5, 0.15 M NaCl, 5% glycerol, 0.5 mg/ml BSA, 1 mM EDTA, 1 mM DTT, 0.1 nM 32P 27 bp probe, 50 ug/ml poly dI/dC; temperature not stated
[2] = biological target: T1, Fis WT; assay: EMSA; t1/2 38 min; EMSA: 20 mM Hepes pH 7.5, 0.15 M NaCl, 5% glycerol, 0.5 mg/ml BSA, 1 mM EDTA, 1 mM DTT, 0.1 nM 32P 27 bp probe, 50 ug/ml poly dI/dC; temperature not stated
[3] = biological target: T1, Fis WT; assay: EMSA; t1/2 30 min; EMSA: 20 mM Hepes pH 7.5, 0.15 M NaCl, 5% glycerol, 0.5 mg/ml BSA, 1 mM EDTA, 1 mM DTT, 0.1 nM 32P 27 bp probe, 50 ug/ml poly dI/dC; temperature not stated
[4] = biological target: T1, Fis WT; assay: EMSA; t1/2 36 min; EMSA: 20 mM Hepes pH 7.5, 0.15 M NaCl, 5% glycerol, 0.5 mg/ml BSA, 1 mM EDTA, 1 mM DTT, 0.1 nM 32P 27 bp probe, 50 ug/ml poly dI/dC; temperature not stated
[5] = biological target: T1, Fis WT; assay: EMSA; t1/2 25 min; EMSA: 20 mM Hepes pH 7.5, 0.15 M NaCl, 5% glycerol, 0.5 mg/ml BSA, 1 mM EDTA, 1 mM DTT, 0.1 nM 32P 27 bp probe, 50 ug/ml poly dI/dC; temperature not stated

T1 sequence (P0A6R3 whole entry): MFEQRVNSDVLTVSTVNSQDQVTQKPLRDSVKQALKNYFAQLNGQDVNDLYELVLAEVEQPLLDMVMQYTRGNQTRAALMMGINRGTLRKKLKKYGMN

B1: F1±10C (dsDNA)
DNA 1: AAACTTGTTTGAATTTTGAGCAAGTTT
DNA 2: AAACTTGCTCAAAATTCAAACAAGTTT
B1 gave a Kd [1] of 0.3 ± 0.1 nM.

B2: F1±10G (dsDNA)
DNA 1: AAAGTTGTTTGAATTTTGAGCAACTTT
DNA 2: AAAGTTGCTCAAAATTCAAACAACTTT
Work on B2 yielded a Kd [2] of 0.5 ± 0.1 nM.

B3: F1±9C (dsDNA)
DNA 1: AAATCTGTTTGAATTTTGAGCAGATTT
DNA 2: AAATCTGCTCAAAATTCAAACAGATTT
B3 was tested, and the Kd [3] was 0.3 ± 0.1 nM.

B4: F1±10A (dsDNA)
DNA 1: AAAATTGTTTGAATTTTGAGCAATTTT
DNA 2: AAAATTGCTCAAAATTCAAACAATTTT
In the case of B4, the Kd [4] is reported as 0.5 ± 0.1 nM.

B5: F1±9G (dsDNA)
DNA 1: AAATGTGTTTGAATTTTGAGCACATTT
DNA 2: AAATGTGCTCAAAATTCAAACACATTT
In the case of B5, the Kd [5] is reported as 0.6 ± 0.2 nM.
